The target in assay [1] is CR pair used to test the MatRAP1 truncations (not named). In words: solid-phase binding assay of truncated variants (FIG. 9).
The target in assay [2] is 8D6 CR12 (human) (UniProt Q9NPF0). In words: solid-phase binding assay (FIG. 10).
For assay [3], the target named is LRP2 CR89 (human) (UniProt P98164). In words: solid-phase binding assay, CR protein coated, anti-RAP detection.
LRP2 CR89 (human), sequence (P98164 1025-1102): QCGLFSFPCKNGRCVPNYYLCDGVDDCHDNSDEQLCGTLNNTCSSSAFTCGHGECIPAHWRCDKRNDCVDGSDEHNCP

MatRAP1 N-42, sequence (P30533 other isoform, or with tags, fused parts or gaps): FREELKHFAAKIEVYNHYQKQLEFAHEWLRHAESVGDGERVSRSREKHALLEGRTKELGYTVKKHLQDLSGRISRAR
8D6 CR12 (human), sequence (Q9NPF0 other isoform, or with tags, fused parts or gaps): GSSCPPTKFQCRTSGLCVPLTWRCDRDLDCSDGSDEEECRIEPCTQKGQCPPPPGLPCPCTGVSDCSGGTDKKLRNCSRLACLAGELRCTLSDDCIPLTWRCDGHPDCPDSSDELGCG

“MatRAP1 amino acids 243-313 (best truncated variant, 71 amino acids) (from UniProt P30533 277-347) (ligand)”: in assay [1], the fold increase in affinity over MatRAP1 N-42 came to 4 fold and the fold increase in affinity over the full-length d3 variant worked out at 12 fold.

On to “MatRAP1 N-42 (from UniProt P30533 277-353) (ligand)”, for which, in assay [1], the fold increase in affinity over the full-length d3 variant came out at 3 fold.

With “320RAP1 truncated form (identical truncations, amino acids 243-313) (from UniProt P30533 277-347) (ligand)”, in assay [2], the fold improvement in affinity against the full-length variant was found to be 3.5 fold.

For the substance “MegaRAP1 d3 Y249H (from UniProt P30533 235-353) (ligand)”, in assay [3], the % max is 35%.

The values above are taken from patent publication US20180118802A1.
